Laboratory results as given in patent publication US20210269480A1 (published 2021).
*1 amine or outer side, *2 acyl side, *3 side chain or, on linkers, in order; H or OH if unused. Bridges are numbered along the chain shown (N, C = ends). Where no end group is shown, it is not given here. [ ]: non-standard residue; d: D form. TATA = O=C(CC[*:1])N1CN(C(=O)CC[*:2])CN(C(=O)CC[*:3])C1; Phe(4-COOH) = N[C@@H](Cc1ccc(C(=O)O)cc1)C(=O)O; 1Nal = N[C@@H](Cc1cccc2ccccc12)C(=O)O; 2Nal = N[C@@H](Cc1ccc2ccccc2c1)C(=O)O; hArg = N=C(N)NCCCC[C@H](N)C(=O)O; 2Pal = N[C@@H](Cc1ccccn1)C(=O)O; Aze = O=C(O)[C@@H]1CCN1; βAla = NCCC(=O)O; Sar = CNCC(=O)O

T1: human Nectin-4 (human, UniProt Q96NY8 32-349)
T1 construct: a Gly32-Ser349 FLAG construct is described only under the SPR assay; also called PVRL4
T1 sequence (looked up): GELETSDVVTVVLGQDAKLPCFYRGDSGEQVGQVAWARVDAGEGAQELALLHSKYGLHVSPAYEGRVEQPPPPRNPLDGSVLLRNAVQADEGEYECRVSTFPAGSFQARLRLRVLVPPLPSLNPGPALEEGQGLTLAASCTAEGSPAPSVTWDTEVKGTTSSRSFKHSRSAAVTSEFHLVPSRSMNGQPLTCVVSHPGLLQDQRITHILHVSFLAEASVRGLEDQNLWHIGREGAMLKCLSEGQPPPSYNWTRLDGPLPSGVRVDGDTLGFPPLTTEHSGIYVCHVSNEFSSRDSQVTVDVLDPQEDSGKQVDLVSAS


What follows are binders tested against T1, human Nectin-4 (assay: FP competition, tracer SEQ ID NO 217).
Protocol: Peptides were diluted to an appropriate concentration in assay buffer as described in the direct binding assay with a maximum of 5% DMSO, then serially diluted 1 in 2. […] Measurements were conducted as for the direct binding assay, however the gain was determined prior to the first measurement. Data analysis was in Systat Sigmaplot version 12.0 where the mP values were fit to a user defined cubic equation to generate a Ki value: […]

Row | Ki [nM] | Binder
1 | 17.1 | Ac-CPFGCMKNWSWPIWC (linker 1-5-15 via TATA, also called 80-09-02-N008) [BCY7390]
2 | 77 | Ac-CGFGCMKNWSWPIWC (linker 1-5-15 via TATA) [BCY7607]
3 | 14.8 | Ac-CPFGCMKHWSWPIWC (linker 1-5-15 via TATA, also called 80-09-02-N051) [BCY7662]
4 | 21 | Ac-CPFGCMPNWSWPIWC (linker 1-5-15 via TATA) [BCY7614]
5 | 169 | Ac-CPFGCMKNWSWPIYC (linker 1-5-15 via TATA) [BCY7597]
6 | 38.5 | Ac-CPFGCMKNWSYPIWC (linker 1-5-15 via TATA) [BCY7590]
7 | 24.1 | Ac-CPFGCMKNWSTPIWC (linker 1-5-15 via TATA, also called 80-09-02-N054) [BCY7665]
8 | 77.9 | Ac-CPFGCMDNWSWPIWC (linker 1-5-15 via TATA, also called 80-09-02-N048) [BCY7659]
9 | 33.6 | Ac-CPFGCMSNWSWPIWC (linker 1-5-15 via TATA, also called 80-09-02-N047) [BCY7658]
10 | 353 | Ac-CPFGCMKNWSWPIFC (linker 1-5-15 via TATA) [BCY7596]
11 | 34.5 | Ac-CPFGCMKNWSFPIWC (linker 1-5-15 via TATA) [BCY7589]
12 | 357 | Ac-CPFGCMKNWSDPIWC (linker 1-5-15 via TATA, also called 80-09-02-N022) [BCY7540]
13 | 29.4 | Ac-CPFGCMKDWSWPIWC (linker 1-5-15 via TATA, also called 80-09-02-N050) [BCY7661]
14 | 42 | Ac-C[Aze]FGCMKNWSWPIWC (linker 1-5-15 via TATA) [BCY7608]
15 | 42 | CPF[dD]CM[hArg]NWSTPIWC (linker 1-5-15 via TATA) [BCY7793]
16 | 310 | ACWPLDPYWCGRICA (linker 2-10-14 via TATA) [BCY430]
17 | 26.1 | [βAla][Sar][Sar][Sar][Sar][Sar]CPF[dD]CM[hArg]NWSWPIWC (linker 7-11-21 via TATA) [BCY7556]
18 | 21.9 | {Ac-βAla}-[Sar][Sar][Sar][Sar][Sar]CPF[dD]CM[hArg]NWSWPIWC (linker 6-10-20 via TATA) [BCY7558]
19 | 21.4 | Ac-CPF[dD]CL[hArg]NWSTPIWC (linker 1-5-15 via TATA) [BCY8039]
20 | 84 | Ac-CPF[dD]CK[hArg]NWSTPIWC (linker 1-5-15 via TATA) [BCY7821]
21 | 10.8 | Ac-CPY[dD]CM[hArg]NWSTPIWC (linker 1-5-15 via TATA) [BCY8040]
22 | 22.5 | [βAla][Sar][Sar][Sar][Sar][Sar]CPF[dA]CM[hArg]NWSWPIWC (linker 7-11-21 via TATA) [BCY7557]
23 | 8 | Ac-CPF[dD]CL[hArg]NWSTPPWC (linker 1-5-15 via TATA) [BCY8038]
24 | 27 | Ac-CPF[dD]CM[hArg]KWSTPIWC (linker 1-5-15 via TATA) [BCY7822]
25 | 17 | {Ac-βAla}-[Sar][Sar][Sar][Sar][Sar]CPF[dA]CM[hArg]NWSWPIWC (linker 6-10-20 via TATA) [BCY7559]
26 | 7.5 | Ac-CPF[dD]CM[hArg]NWSTPPWC (linker 1-5-15 via TATA) [BCY8036]

Row | Ki [nM] | Binder
27 | 15.1 | Ac-CPF[dD]CM[hArg]NWSTPKWC (linker 1-5-15 via TATA) [BCY8085]
28 | 26.2 | Ac-CPFGCM[hArg]NWSWPIWC (linker 1-5-15 via TATA) [BCY7660]
29 | 42.6 | ACPFGCMRNWSWPIWCA (linker 2-6-16 via TATA, also called 80-09-02-N003) [BCY429]
30 | 61 | ACPFGCMKNWSWPIWCA (linker 2-6-16 via TATA, also called 80-09-02-N002) [BCY428]
31 | 86 | QKWCAPLSXYWCNRIC (N-terminal Ac; TATA on 3 Cys) [BCY7640]
32 | 246 | Ac-CP[2Pal]GCMKNWSWPIWC (linker 1-5-15 via TATA) [BCY7620]
33 | 34 | Ac-[dD]CPFGCMKNWSWPIWC (linker 2-6-16 via TATA) [BCY7606]
34 | 490 | Ac-QKWCAPL[dA]DYWCNRIC (linker 4-12-16 via TATA) [BCY7639]
35 | 25.5 | Ac-CPFGCMKN[1Nal]SWPIWC (linker 1-5-15 via TATA) [BCY7663]
36 | 71.9 | Ac-[Phe(4-COOH)]CPFGCMKNWSWPIWC (linker 2-6-16 via TATA) [BCY7656]
37 | 27.3 | Ac-CPFGCMKNWSWPI[2Nal]C (linker 1-5-15 via TATA) [BCY7667]
38 | 205 | Ac-CPFK(Ac)CMKNWSWPIWC (linker 1-5-15 via TATA) [BCY7611]
39 | 27.2 | Ac-QKWCAPLSDYWCNRIC (linker 4-12-16 via TATA) [BCY7392]
40 | 123 | Ac-QKWCAPLSDYWCNAIC (linker 4-12-16 via TATA) [BCY7632]
41 | 38 | Ac-Q[dD]WCAPLSDYWCNRIC (linker 4-12-16 via TATA) [BCY7993]
42 | 522 | Ac-QK[dA]CAPLSDYWCNRIC (linker 4-12-16 via TATA) [BCY7636]
43 | 21 | Ac-QAWCAPLSDYWCNRIC (linker 4-12-16 via TATA) [BCY7623]
44 | 141 | Ac-QKWCAALSDYWCNRIC (linker 4-12-16 via TATA) [BCY7625]
45 | 15.2 | Ac-Q[dA]WCAPLSDYWCNRIC (linker 4-12-16 via TATA) [BCY7635]
46 | 24 | Ac-[dA]KWCAPLSDYWCNRIC (linker 4-12-16 via TATA) [BCY7634]
47 | 101 | Ac-QKWCAPLADYWCNRIC (linker 4-12-16 via TATA) [BCY7627]
48 | 19 | Ac-QKWCAPLSDYWCARIC (linker 4-12-16 via TATA) [BCY7631]
49 | 571 | Ac-QKACAPLSDYWCNRIC (linker 4-12-16 via TATA) [BCY7624]
50 | 31 | Ac-AKWCAPLSDYWCNRIC (linker 4-12-16 via TATA) [BCY7622]
51 | 70 | Ac-CPFGCMKN[2Nal]SWPIWC (linker 1-5-15 via TATA) [BCY7664]
52 | 19 | Ac-QKWCAPLSDYWC[dA]RIC (linker 4-12-16 via TATA) [BCY7643]
